Measurements: PMC6321783 (Cellular signalling, 2018)

Target: T1, HA-ASK1 (Apoptosis Signal-regulating Kinase 1) (UniProt Q99683 1-1374)
T1 sequence (looked up): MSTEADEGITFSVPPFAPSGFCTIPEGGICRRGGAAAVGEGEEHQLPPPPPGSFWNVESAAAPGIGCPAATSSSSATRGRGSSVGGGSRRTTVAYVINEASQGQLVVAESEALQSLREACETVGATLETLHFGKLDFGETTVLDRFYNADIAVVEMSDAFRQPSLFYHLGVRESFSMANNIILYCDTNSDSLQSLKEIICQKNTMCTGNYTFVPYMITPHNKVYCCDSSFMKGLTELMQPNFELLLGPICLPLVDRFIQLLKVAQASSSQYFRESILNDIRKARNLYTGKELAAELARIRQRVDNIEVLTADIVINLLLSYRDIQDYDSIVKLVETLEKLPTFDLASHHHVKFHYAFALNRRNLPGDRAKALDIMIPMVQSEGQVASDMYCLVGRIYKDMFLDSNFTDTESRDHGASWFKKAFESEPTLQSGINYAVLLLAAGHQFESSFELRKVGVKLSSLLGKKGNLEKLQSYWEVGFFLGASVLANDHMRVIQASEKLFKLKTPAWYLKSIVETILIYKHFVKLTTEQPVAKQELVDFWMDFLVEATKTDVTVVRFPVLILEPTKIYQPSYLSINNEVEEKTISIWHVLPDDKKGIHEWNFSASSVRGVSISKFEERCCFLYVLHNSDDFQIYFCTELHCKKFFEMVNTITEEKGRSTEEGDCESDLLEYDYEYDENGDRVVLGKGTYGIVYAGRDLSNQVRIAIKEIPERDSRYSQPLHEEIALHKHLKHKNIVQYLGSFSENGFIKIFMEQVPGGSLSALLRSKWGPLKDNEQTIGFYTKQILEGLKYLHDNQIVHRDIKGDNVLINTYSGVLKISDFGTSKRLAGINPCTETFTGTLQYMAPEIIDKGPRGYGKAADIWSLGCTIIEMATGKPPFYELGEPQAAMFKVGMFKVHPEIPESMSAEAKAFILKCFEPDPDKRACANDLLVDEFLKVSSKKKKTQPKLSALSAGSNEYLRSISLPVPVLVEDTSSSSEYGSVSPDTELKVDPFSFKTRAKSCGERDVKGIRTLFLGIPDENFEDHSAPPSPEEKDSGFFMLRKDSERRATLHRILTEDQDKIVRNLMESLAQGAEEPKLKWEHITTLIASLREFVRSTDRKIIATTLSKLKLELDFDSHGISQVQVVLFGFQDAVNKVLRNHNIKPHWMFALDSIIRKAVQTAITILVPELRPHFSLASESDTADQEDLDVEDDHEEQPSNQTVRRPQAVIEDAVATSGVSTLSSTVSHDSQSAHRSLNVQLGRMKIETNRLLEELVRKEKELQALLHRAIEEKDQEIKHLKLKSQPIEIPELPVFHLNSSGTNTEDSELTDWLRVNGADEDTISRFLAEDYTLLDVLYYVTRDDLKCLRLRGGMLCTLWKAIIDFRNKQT
Assay: co-IP

B1: arrestin-3-(1–366) fragment (expressed in COS7 cells) (domain or fragment, bovine, UniProt P32120-2 1-366, looked up)
chain: MGEKPGTRVFKKSSPNCKLTVYLGKRDFVDHLDKVDPVDGVVLVDPDYLKDRKVFVTLTCAFRYGREDLDVLGLSFRKDLFIANYQAFPPTPNPPRPPTRLQERLLRKLGQHAHPFFFTIPQNLPCSVTLQPGPEDTGKACGVDFEIRAFCAKSLEEKSHKRNSVRLVIRKVQFAPEKPGPQPSAETTRHFLMSDRSLHLEASLDKELYYHGEPLNVNVHVTNNSTKTVKKIKVSVRQYADICLFSTAQYKCPVAQVEQDDQVSPSSTFCKVYTITPLLSNNREKRGLALDGKLKHEDTNLASSTIVKEGANKEVLGILVSYRVKVKLVVSRGGDVSVELPFVLMHPKPHDHIALPRPQSAAPETD
B1 was tested, and the “binding relative to WT arrestin-3” value was ~0.33 of WT.
